Laboratory results: patent US20240360189A1 (LUXEMBOURG INSTITUTE OF HEALTH LIH, published 2024)

Target: T1, HER2 on BT474 breast tumour cells (human, UniProt P04626 23-1255)
T1 construct: whole, on cells; also called HER2-positive BT474 cells
Test: flow cytometry, cross-linking of NK92MI and BT474 cells (data not shown)

B1: Z199 scFv anti-NKG2A.C4bp(beta).Fc[knob]/2D3 VHH anti-HER2.C4bp(beta).Fc[hole] bispecific pseudo-IgG (bispecific antibody)
chain 1: RSQVKLQQSGGGLVKPGGSLKLSCAASGFTFSSYAMSWVRQSPEKRLEWVAEISSGGSYTYYPDTVTGRFTISRDNAKNTLYLEISSLRSEDTAMYYCTRHGDYPRFFDVWGAGTTVTVSSGGGGSGGGGSGGGGSQIVLTQSPALMSASPGEKVTMTCSASSSVSYIYWYQQKPRSSPKPWIYLTSNLASGVPARFSGSGSGTSYSLTISSMEAEDAATYYCQQWSGNPYTFGGGTKLEIKRAAASGAGGGGSSGAGGSAGGGGSSGGGGSAGGGGSIQEAPKPECEKALLAFQESKNLCEAMENFMQQLKESGMTMEELKYSLELKKAELKAKLLEPKSCDKTHTCPPCPAPELLGGPSVFLFPPKPKDTLMISRTPEVTCVVVDVSHEDPEVKFNWYVDGVEVHNAKTKPREEQYNSTYRVVSVLTVLHQDWLNGKEYKCKVSNKALPAPIEKTISKAKGQPREPQVYTLPPCRDELTKNQVSLWCLVKGFYPSDIAVEWESNGQPENNYKTTPPVLDSDGSFFLYSALTVDKSRWQQGNVFSCSVMHEALHNHYTQKSLSLSPGK
chain 2: not shown
notes: also called Z199/2D3
Q: Does B1 bind?
A: binds
